# Experimental data: patent US20060009452A1, “Therapeutic targeting of PARC/CCL18 and its signaling in pulmonary fibrosis” (priority 2004, published 2006)
# Entries after “also recorded” stand apart in the source; their conditions may differ.
# What was measured:
# [1] = test system: Sp1-sensitive promoter; test: Luciferase assay of Sp1-sensitive promoter (pGAGC6) in transfected lung fibroblasts; type: cell-based, human; conditions: pGAGC6-transfected primary lung fibroblasts
# Method: FIG. 16. Stimulation with PARC increases Sp1 promoter-stimulating activity in cultured primary lung fibroblasts. Luciferase activity was measured in a chemiluminescence-based assay in cell lysates from the following fibroblast cultures: mock-transfected non-stimulated (Medium), pGAM-transfected non-stimulated (pGAM Ctrl), pGAM-transfected PARC-stimulated (PGAM PARC), pGAGC6-transfected non-stimulated (pGAGC6 Ctrl), and pGAGC6-transfected PARC-stimulated (pGAGC6 PARC).
# [2] = test system: Smad3; test: Smad3 immunoprecipitation and phosphorylation Western blot; type: cell-based, human; conditions: fibroblasts activated with cytokine
# Method: To determine if PARC stimulated phosphorylation of Sp1 and Smad3, these factors were immunoprecipitated from lysates of fibroblasts that had been activated with recombinant human PARC for up to 24 hours, and the levels of their phosphorylation were tested in Western blotting assays using anti-phosphoserine and anti-phospho-Smad2/3 antibodies. Equal loading was controlled by stripping the membranes and re-developing them with anti-Sp1, anti-Smad3 and anti-Smad2/3 antibodies (FIG. 17).
# Preparation of fibroblast lysates, immunoprecipitation of Sp1 and Smad2/3, normalization of protein concentration in the samples with BioRad assays, electrophoretic separation, Western blotting, membrane stripping and re-development with different antibodies were performed as described in Atamas et al. (Am. J. Respir. Cell. Mol., 29:743-749 (2003); J. Immunol. 168: 1139-1145 (2002); and Arthritis Rheum., 42:1168-1178 (1999)), which are hereby incorporated by reference. Rabbit antibodies for total Smad2/3 and Sp1 were from Upstate (Waltham, Masss.). Antiphospho-Smad2/3 antibody and goat antibody for total Smad3 were from Santa Cruz Biotechnology (Santa Cruz, Calif.), as was anti-gp130 antibody used to confirm equal loading of the samples. Antiphosphoserine antibody was from Biomol (Plymouth Meeting, Pa.).
# [3] = test system: Smad3/4; test: EMSA of nuclear lysates with Smad3/4 probe; type: cell-based, human
# [4] = test system: TGF-β1 mRNA; test: Real-time PCR for TGF-β mRNA; type: cell-based, human; conditions: LF1 and LF4, 300 ng/ml rhPARC
# Method: Real-time PCR Quantification of Steady-State mRNA Levels. Total RNA was purified from fibroblast cultures using Trizol reagent (Invitrogen, Carlsbad, Calif.) following the manufacturer's recommendations. First-strand cDNA was synthesized in a 20-μl reaction mixture containing 1 μg of total RNA, 50 mM Tris HCl (pH 8.3), 75 mM KCl, 3 mM MgCl2, 0.5 mM of each dNTP, 1 μM of random hexamer primers, and 400 units of Moloney murine leukemia virus RT (Invitrogen). The reaction mixture was incubated at 37° C. for 60 minutes, then heated at 95° C. for 5 minutes. Real-time PCR was performed on a LightCycler system (Roche, Indianapolis, Ind.). The primers, PCR protocol, and product quantification for the internal control 18S ribosomal RNA were exactly as reported previously (Schmittgen T D et al.). All other primers and hybridization probes were designed and prepared by TIB Molbiol (Adelphia, N.J.). […] The following PCR conditions were used: activation at 95° C. for 10 min, followed by 35 cycles of denaturation at 95° C. for 3 s, primer annealing at 50° C. for 5 s, fluorescence readout (F12/F11) at 50° C., and extension at 72° C. for 15 s. Fold difference in gene expression relative to 18S rRNA between treated and untreated cultures was calculated using the 2-ΔΔCT method (Livak K J et al.).
# [5] = test system: α2(I) collagen mRNA; test: Real-time PCR for α2(I) collagen mRNA relative to 18S rRNA; type: cell-based, human
# [6] = test system: mink lung epithelial cells; test: Mink lung epithelial cell proliferation assay (thymidine incorporation); type: cell-based
# Method: Mink Lung Epithelial Cell Proliferation Assay for Active TGF-β. Mink lung epithelial cell line CCL-64 was purchased from American Type Culture Collection (ATCC, Manassas, Va.) and maintained in high-serum medium. For proliferation assays, these cells were plated in 96-well plates at 1×10^4 cells/well in low-serum fibroblast cell culture medium and incubated overnight in humidified atmosphere of 5% CO2 at 37° C. The medium was then replaced with fibroblast cell culture supernatants or titrated dilutions rhTGF-β in low-serum medium, with and without neutralizing anti-pan-TGF-β antibody (clone 1D11 from R&D Systems), and incubation continued for additional 24 hours. Six hours before the end of the assay, wells were pulsed with 1 μCi of 3H-thymidine (Amersham). Quadruplicate cultures were harvested automatically and tritiated thymidine incorporation was measured with a TopCount NXT liquid scintillation counter (Perkin Elmer, Downers Grove, Ill.). Data were expressed as percent inhibition (versus low-serum medium used as a negative control), neutralized by 1 μg/ml of anti-TGF-β antibody (this concentration of the antibody was established in preliminary experiments as sufficient to completely abrogate the inhibitory effect of the fibroblast conditioned medium on mink lung epithelial cell proliferation). […]
# [7] = test system: ERK1/2; test: Immunoblotting for phosphorylation of ERK1/2; type: cell-based, human; conditions: lung fibroblasts LF1/LF2 activated with rhPARC
molecule,measurement,setting,value
"rhPARC: Recombinant human pulmonary and activation-regulated chemokine (CC chemokine CCL18), purchased from R&D Systems and Cell Sciences (protein) AQVGTNKELCCLVYTSWQIPQKFIVDYSETSPQCPKPGVILLTKRGRQICADPNKKWVQKYISDLKLNA",Sp1 promoter-stimulating activity (luciferase),[1],leads to activation of the Sp1-sensitive promoter
same,phosphorylation of immunoprecipitated Smad3,[2],No changes in phosphorylation
same,density of the specific Smad3 band relative to the density at time 0,"[3]; LF1, LF2, LF4, rhPARC-stimulated samples",0.9-1.2 fold
same,DNA-binding activity of Smad3/4 (EMSA),[3]; after activation with PARC,No increase; also recorded: but not Smad3/4
same,"steady-state levels of TGF-β mRNAs, treated versus control",[4],no difference in TGF-β1 mRNA levels
same,steady-state collagen α2(I) mRNA level versus control,"[5]; LF1 and LF2, 300 ng/ml rhPARC, 3 and 6 h",transiently increased; also recorded: higher than in control cells
same,higher concentration of collagen mRNA in treated samples versus control,"[5]; lung fibroblasts, 300 ng/ml rhPARC, 6 h",approximately 4 fold
same,direct effect on proliferation of mink lung epithelial cells,[6],did not affect proliferation of mink lung epithelial cells
same,phosphorylation of ERK1/2,[7],increased; also recorded: activated
